Results reported in patent US20240228572A1 (I2O THERAPEUTICS, published 2024).
*1 amine or outer side, *2 acyl side, *3 side chain or, on linkers, in order; H or OH if unused. Bridges are numbered along the chain shown (N, C = ends). Primed or numbered codes have the meaning given here. Where no end group is shown, it is not given here. Side-chain parts run from the residue outwards. [ ]: non-standard residue; d: D form. The star is where a group is joined. dpeg″ = spacer —[CO(CH2)O(CH2)2O(CH2)NH]—, O=C(COCCOCN[*:1])[*:2]; C20 diacid = O=C(O)CCCCCCCCCCCCCCCCCCC(=O)*; γGlu = O=C(O)[C@H](CCC(=O)[*:2])N[*:1]; Aib = CC(C)(N)C(=O)O

B1: Compound A36 (peptide)
peptide: Ac-YSHGTFTSDYSKYLD[Aib]KYAQK([γGlu-γGlu-dpeg″-C20 diacid])FVKWLEEEPSSGAPPPS-OH
modifications: lactam 24-28
SMILES: CC(=O)N[C@@H](Cc1ccc(O)cc1)C(=O)N[C@@H](CO)C(=O)N[C@@H](Cc1c[nH]cn1)C(=O)NCC(=O)N[C@H](C(=O)N[C@@H](Cc1ccccc1)C(=O)N[C@H](C(=O)N[C@@H](CO)C(=O)N[C@@H](CC(=O)O)C(=O)N[C@@H](Cc1ccc(O)cc1)C(=O)N[C@@H](CO)C(=O)N[C@@H](CCCCN)C(=O)N[C@@H](Cc1ccc(O)cc1)C(=O)N[C@@H](CC(C)C)C(=O)N[C@@H](CC(=O)O)C(=O)NC(C)(C)C(=O)N[C@@H](CCCCN)C(=O)N[C@@H](Cc1ccc(O)cc1)C(=O)N[C@@H](C)C(=O)N[C@@H](CCC(N)=O)C(=O)N[C@@H](CCCCNC(=O)CC[C@H](NC(=O)CC[C@H](NC(=O)COCCOCNC(=O)CCCCCCCCCCCCCCCCCCC(=O)O)C(=O)O)C(=O)O)C(=O)N[C@@H](Cc1ccccc1)C(=O)N[C@H](C(=O)N[C@H]1CCCCNC(=O)CC[C@@H](C(=O)N[C@@H](CCC(=O)O)C(=O)N2CCC[C@H]2C(=O)N[C@@H](CO)C(=O)N[C@@H](CO)C(=O)NCC(=O)N[C@@H](C)C(=O)N2CCC[C@H]2C(=O)N2CCC[C@H]2C(=O)N2CCC[C@H]2C(=O)N[C@@H](CO)C(=O)O)NC(=O)[C@H](CCC(=O)O)NC(=O)[C@H](CC(C)C)NC(=O)[C@H](Cc2c[nH]c3ccccc23)NC1=O)C(C)C)[C@@H](C)O)[C@@H](C)O
B2: Compound A38 (peptide)
peptide: YSHGTFTSDYSKYLD[Aib]KYAEK([γGlu-γGlu-dpeg″-C20 diacid])FVKWLEEEPSSGAPPPS-OH
modifications: lactam 24-28; N-terminus assumed
SMILES: CC(C)C[C@@H]1NC(=O)[C@H](Cc2c[nH]c3ccccc23)NC(=O)[C@@H](NC(=O)[C@@H](NC(=O)[C@H](Cc2ccccc2)NC(=O)[C@H](CCCCNC(=O)CC[C@H](NC(=O)CC[C@H](NC(=O)COCCOCNC(=O)CCCCCCCCCCCCCCCCCCC(=O)O)C(=O)O)C(=O)O)NC(=O)[C@H](CCC(=O)O)NC(=O)[C@H](C)NC(=O)[C@H](Cc2ccc(O)cc2)NC(=O)[C@H](CCCCN)NC(=O)C(C)(C)NC(=O)[C@H](CC(=O)O)NC(=O)[C@H](CC(C)C)NC(=O)[C@H](Cc2ccc(O)cc2)NC(=O)[C@H](CCCCN)NC(=O)[C@H](CO)NC(=O)[C@H](Cc2ccc(O)cc2)NC(=O)[C@H](CC(=O)O)NC(=O)[C@H](CO)NC(=O)[C@@H](NC(=O)[C@H](Cc2ccccc2)NC(=O)[C@@H](NC(=O)CNC(=O)[C@H](Cc2c[nH]cn2)NC(=O)[C@H](CO)NC(=O)[C@@H](N)Cc2ccc(O)cc2)[C@@H](C)O)[C@@H](C)O)C(C)C)CCCCNC(=O)CC[C@@H](C(=O)N[C@@H](CCC(=O)O)C(=O)N2CCC[C@H]2C(=O)N[C@@H](CO)C(=O)N[C@@H](CO)C(=O)NCC(=O)N[C@@H](C)C(=O)N2CCC[C@H]2C(=O)N2CCC[C@H]2C(=O)N2CCC[C@H]2C(=O)N[C@@H](CO)C(=O)O)NC(=O)[C@H](CCC(=O)O)NC1=O
B3: Compound A39 (peptide)
peptide: YSHGTFTSDYSKYLD[Aib]KYAKK([γGlu-γGlu-dpeg″-C20 diacid])FVKWLEEEPSSGAPPPS-OH
modifications: lactam 24-28; N-terminus assumed
SMILES: CC(C)C[C@@H]1NC(=O)[C@H](Cc2c[nH]c3ccccc23)NC(=O)[C@@H](NC(=O)[C@@H](NC(=O)[C@H](Cc2ccccc2)NC(=O)[C@H](CCCCNC(=O)CC[C@H](NC(=O)CC[C@H](NC(=O)COCCOCNC(=O)CCCCCCCCCCCCCCCCCCC(=O)O)C(=O)O)C(=O)O)NC(=O)[C@H](CCCCN)NC(=O)[C@H](C)NC(=O)[C@H](Cc2ccc(O)cc2)NC(=O)[C@H](CCCCN)NC(=O)C(C)(C)NC(=O)[C@H](CC(=O)O)NC(=O)[C@H](CC(C)C)NC(=O)[C@H](Cc2ccc(O)cc2)NC(=O)[C@H](CCCCN)NC(=O)[C@H](CO)NC(=O)[C@H](Cc2ccc(O)cc2)NC(=O)[C@H](CC(=O)O)NC(=O)[C@H](CO)NC(=O)[C@@H](NC(=O)[C@H](Cc2ccccc2)NC(=O)[C@@H](NC(=O)CNC(=O)[C@H](Cc2c[nH]cn2)NC(=O)[C@H](CO)NC(=O)[C@@H](N)Cc2ccc(O)cc2)[C@@H](C)O)[C@@H](C)O)C(C)C)CCCCNC(=O)CC[C@@H](C(=O)N[C@@H](CCC(=O)O)C(=O)N2CCC[C@H]2C(=O)N[C@@H](CO)C(=O)N[C@@H](CO)C(=O)NCC(=O)N[C@@H](C)C(=O)N2CCC[C@H]2C(=O)N2CCC[C@H]2C(=O)N2CCC[C@H]2C(=O)N[C@@H](CO)C(=O)O)NC(=O)[C@H](CCC(=O)O)NC1=O

Key:
[1] = target: human Glucagon receptor (GCGR) (human, UniProt P47871 26-477); assay: cell-based or functional assay
[2] = target: human GLP-1 receptor (GLP-1R) (human, UniProt P43220 24-463); assay: cell-based or functional assay
Sequence of human GLP-1 receptor (GLP-1R) (P43220 24-463): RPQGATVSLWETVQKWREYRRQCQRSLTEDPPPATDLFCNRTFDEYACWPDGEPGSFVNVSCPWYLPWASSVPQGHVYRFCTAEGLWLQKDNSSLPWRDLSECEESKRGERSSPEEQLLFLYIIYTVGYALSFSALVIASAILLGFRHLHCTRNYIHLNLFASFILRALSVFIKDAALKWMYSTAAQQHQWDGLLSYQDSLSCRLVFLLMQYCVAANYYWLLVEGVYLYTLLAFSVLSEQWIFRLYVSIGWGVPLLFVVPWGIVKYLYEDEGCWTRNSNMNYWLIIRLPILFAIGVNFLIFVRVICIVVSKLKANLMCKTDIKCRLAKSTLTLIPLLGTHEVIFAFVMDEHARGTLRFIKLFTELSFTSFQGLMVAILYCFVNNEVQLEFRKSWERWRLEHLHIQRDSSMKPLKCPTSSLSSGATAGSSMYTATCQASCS

| Binder | pEC50, cAMP accumulation [1] | pEC50, cAMP accumulation [2] |
| --- | --- | --- |
| YSHGTFTSDYSKYLDK([γGlu-γGlu-dpeg″-C20 diacid])KYAEKFVKWLEKEPSSGAPPPS-OH (lactam 20-24) [Compound A26] | 11.1 pEC50 (-log M) | < 9 pEC50 (-log M) |
| YSHGTFTSDYSKYLDK([γGlu-γGlu-dpeg″-C20 diacid])KYAEKFVKWLENEPSSGAPPPS-OH (lactam 20-24) [Compound A27] | 12 pEC50 (-log M) | < 9 pEC50 (-log M) |
| YSHGTFTSDYSKYLDK([γGlu-γGlu-dpeg″-C20 diacid])KYAEKFVKWLESEPSSGAPPPS-OH (lactam 20-24) [Compound A28] | 11.7 pEC50 (-log M) | < 9 pEC50 (-log M) |
| YSHGTFTSDYSKYLD[Aib]KYAQK([γGlu-γGlu-dpeg″-C20 diacid])FVKWLEDEPSSGAPPPS-OH (lactam 24-28) [Compound A30] | 12.5 pEC50 (-log M) | < 9 pEC50 (-log M) |
| YSHGTFTSDYSKYLDK([γGlu-γGlu-dpeg″-C20 diacid])KYAEKFVKWLEDEPSSGEPPPS-OH (lactam 20-24) [Compound A31] | 11.9 pEC50 (-log M) | < 9 pEC50 (-log M) |
| YSHGTFTSDYSKYLDK([γGlu-γGlu-dpeg″-C20 diacid])KYAEKFVKWLEDEPSSGKPPPS-OH (lactam 20-24) [Compound A32] | 11.7 pEC50 (-log M) | < 9 pEC50 (-log M) |
| YSHGTFTSDYSKYLDK([γGlu-γGlu-dpeg″-C20 diacid])KYAEKFVKWLEDEPSSGSPPPS-OH (lactam 20-24) [Compound A33] | 11.9 pEC50 (-log M) | < 9 pEC50 (-log M) |
| YSHGTFTSDYSKYLDK([γGlu-γGlu-dpeg″-C20 diacid])KYAEKFVKWLEDEPSSGAPPPS-NH2 (lactam 20-24) [Compound A34] | 11.9 pEC50 (-log M) | < 9 pEC50 (-log M) |
| YSHGTFTSDYSKYLDK([γGlu-γGlu-dpeg″-C20 diacid])KYAEKFVKWLEDE-NH2 (lactam 20-24) [Compound A35] | 11.9 pEC50 (-log M) | < 9 pEC50 (-log M) |
| B1 | 10.8 pEC50 (-log M) | < 9 pEC50 (-log M) |
| Ac-YSHGTFTSDYSKYLDK([γGlu-γGlu-dpeg″-C20 diacid])KYAEKFVKWLEDEPSSGAPPPS-OH (lactam 20-24) [Compound A37] | 11.5 pEC50 (-log M) | < 9 pEC50 (-log M) |
| B2 | 11.4 pEC50 (-log M) | < 9 pEC50 (-log M) |
| B3 | 11.7 pEC50 (-log M) | < 9 pEC50 (-log M) |
